Data: US6849441

Biological target: protease TCES (hyperthermostable protease derived from Thermococcus celer), enzyme preparation (Thermococcus celer)
Experiment: cell-based or functional assay

Chain of protease TCES (hyperthermostable protease derived from Thermococcus celer), enzyme preparation (Thermococcus celer) (chain, as listed by the source limits assumed): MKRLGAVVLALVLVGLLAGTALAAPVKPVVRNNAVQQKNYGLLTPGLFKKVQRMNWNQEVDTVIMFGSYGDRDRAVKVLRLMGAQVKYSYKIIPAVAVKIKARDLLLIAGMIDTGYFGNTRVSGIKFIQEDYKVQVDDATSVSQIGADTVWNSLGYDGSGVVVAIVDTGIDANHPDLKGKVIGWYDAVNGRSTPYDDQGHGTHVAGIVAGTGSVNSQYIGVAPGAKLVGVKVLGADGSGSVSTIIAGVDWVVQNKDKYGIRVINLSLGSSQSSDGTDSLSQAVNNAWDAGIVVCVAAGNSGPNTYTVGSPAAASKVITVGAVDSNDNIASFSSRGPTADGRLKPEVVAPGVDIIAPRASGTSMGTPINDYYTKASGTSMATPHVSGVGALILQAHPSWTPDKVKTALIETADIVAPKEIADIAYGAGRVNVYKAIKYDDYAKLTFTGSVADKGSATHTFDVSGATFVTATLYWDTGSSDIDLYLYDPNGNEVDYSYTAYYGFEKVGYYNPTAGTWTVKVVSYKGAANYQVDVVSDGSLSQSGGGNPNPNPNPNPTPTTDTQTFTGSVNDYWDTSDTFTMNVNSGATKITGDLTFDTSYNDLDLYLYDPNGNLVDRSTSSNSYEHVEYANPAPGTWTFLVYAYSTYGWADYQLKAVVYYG

| enzyme activity compared with control without reagent, after treatment at 37° C. for 30 minutes with 1 mM reagent [%] | Substance |
| --- | --- |
| 104 | Leupeptin (peptide) |
| 19 | Antipain (peptide) |
| 0 | Chymostatin (peptide) |
| 105 | Pepstatin (peptide) |
